Measurements taken from the supplement of paper PMC10567573.
± gives the standard deviation.

Assay: protein stability index of a GFP-peptide fusion (GPS, HEK-293T) (PSI 1-6); higher = more stable
Details: c terminus: a fixed tail appended
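Note: 24-mer peptide tiles fused after GFP, lentivirally expressed, FACS-sorted into six equal bins by GFP/DsRed ratio, decoded by Illumina sequencing, PSI is the read-weighted mean bin number.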

Sequence	protein stability index (treatment: DMSO)	protein stability index (treatment: MLN4924 1 uM, 8 h)
ILVNLQGTVVFLLSLFIPESPRWL [SLC22A15]	3.12 ± 0.14	3.23 ± 0.48
RTPSAFPQTPAAPPATLGEGSADT [EHMT1]	5.3 ± 0.21	5.25 ± 0.12
VRLHDSISEEGHHYLIFDLVTGGE [CAMK2A]	2.23 ± 0.4	2.26 ± 0.18
EYIVKKLSRQEFLGMVGLFGTIIS [SLC35F2]	2.43 ± 0.26	2.44 ± 0.27
LVTYTNRYIIFKRNTLNQPCSGSV [GMCL1]	2.29 ± 0.24	2.07 ± 0.2
GTTMASGGRFRCPSCRHEVVLDRH [TRIM55]	2.08 ± 0.41	2.12 ± 0.22
LTINPAKRITASEALKHPWICQRS [CAMK2D]	2.57 ± 0.1	2.72 ± 0.25
PSWAALNSSTWGSLKQALKGLSVE [SNX8]	2.94 ± 0.17	3.46 ± 0.29
DARDGQSRTVRQFQFTDWPEQGVP [PTPRD]	4.08 ± 0.61	4.32 ± 0.41
TFLTVTDLIGLPWVCFIYTIMSLA [SLC2A12]	3.38 ± 0.45	2.84 ± 0.58
MATTVTCTRFTDEYQLYEDIGKGA [CAMK2B]	3.25 ± 0.2	3.31 ± 0.18
EILNFNQYYEACRKAAKSLIKLGL [ACSBG2]	1.91 ± 0.39	2.92 ± 1.3
ARAEQEEEFISNTLFKKIQALQKE [CCDC6]	3.48 ± 0.41	3.77 ± 0.34
KSNSYPHQLYTSSSHHSHSYIGLP [KMT2E]	3.03 ± 0.17	3.24 ± 0.26
SFSNYRPFEPQALGLSPSWRLTGF [SEPHS2]	1.95 ± 0.2	2.01 ± 0.42
KMPVYSGSRPACQLQVPTLRQQCA [ELOA2]	3.23 ± 0.32	3.14 ± 0.15
GPQSRELTLKVLRSSSCGDTELLG [C2CD2L]	3.47 ± 0.28	3.59 ± 0.2
MKCLKVGMLKEGVRLDRVRGGRQK [ESRRG]	3.5 ± 0.092	3.73 ± 0.21
VRWLRPVHRQLGEANEEFALRVQQ [AUP1]	3.1 ± 0.25	3.02 ± 0.19
FFGVFQSFVVLLYILDNETNFVVQ [CLPTM1]	3.19 ± 0.33	2.86 ± 0.42
RVVSWLVSAEGSHPDPAPFCADNP [DVL3]	2.35 ± 0.3	2.58 ± 0.24
RELGPEELDELQAAFEEFDTDRDG [CABP4]	5.63 ± 0.39	5.54 ± 0.35
TFEYTLLQPPHESRPQPIYYGFSE [ADAMTSL2]	2.47 ± 0.28	2.58 ± 0.51

Sequence	protein stability index (treatment: DMSO)	protein stability index (treatment: MLN4924 1 uM, 8 h)
MDVGETAMVTADSKYCYGPQGSRS [FKBP8]	4.36 ± 0.31	4.51 ± 0.23
QYKKEPVTTRQVRTIVEEVQDGKV [KRT17]	5 ± 0.22	5.12 ± 0.29
TKFGLFTPGSRIESILMSLPLTAR [CPOX]	2.21 ± 0.3	2.2 ± 0.28
NHTTVTNSTPLRAACFDGRLDIVK [FEM1B]	3.46 ± 0.23	3.4 ± 0.25
HHAQTSKTERINALELLGATFVDK [FEM1C]	3.83 ± 0.12	3.86 ± 0.31
GSELKDSIPVTELSASGPFESHDL [POMP]	5.28 ± 0.34	5.18 ± 0.57
WTLRRTKELRKDYQGPGTRRLQEV [DYRK1B]	3.11 ± 0.32	3.1 ± 0.32
QVAKREREAATKHSKASLPTGEGS [CHCHD6]	5.32 ± 0.47	5.26 ± 0.33
KEKSSTVPIPTVNQYLYFLFAPTL [SOAT1]	2.57 ± 1	2.17 ± 0.51
FTIHNYSHSRERPYKCVQPDCGKA [PLAGL1]	2.86 ± 0.45	2.89 ± 0.37
NKRAALQALKRKKRFEKQLTQIDG [CHMP4C]	3.95 ± 0.42	3.9 ± 0.34
YFTNRKVNSVCWASLNHLDSHILL [DCAF4]	2.82 ± 0.56	2.42 ± 0.21
DPDEVARRWGKRKNKPKMNYEKLS [ETS1]	4.51 ± 0.24	4.22 ± 0.35
ENKENEAFEFKKPVRPVSRGCLHS [CDC25A]	3.87 ± 0.7	3.73 ± 0.52
VGNISKDLGLAPRELAERGVRIVS [PCDHGA10]	3.57 ± 0.29	3.75 ± 0.42
DALISVSYTIITPLFNPMIYSLRN [OR10K2]	4.18 ± 0.26	3.35 ± 0.75
VGTESQGRDWRHLPTITSELSGAP [PXN]	4.21 ± 0.23	4.21 ± 0.2
IGWKTVRMYPFQIHSIALSTFASL [CDS2]	2.69 ± 0.65	2.65 ± 0.45
LPPPSALKKGSKEKQADFLDKQMS [NFE2L1]	4.89 ± 0.24	4.91 ± 0.29
RSIPDTQLEQVIESQKANQCAVLI [ACSBG2]	3.54 ± 0.14	3.67 ± 0.47
LRNKLRELCVKLMFLHPVDYGRKA [SMG5]	3.21 ± 0.36	3.03 ± 0.51
EEPTERGNLEVGEPQSEPVRVLDM [FBXO34]	5.34 ± 0.17	5.5 ± 0.16
